Measurements taken from patent publication US20240059769A1 (BIOLOJIC DESIGN, published 2024).
Read-outs that look alike come from different tables or passages of the source.

How the values were obtained:
[1] = target: T1, recombinant human IL-13 (human, UniProt P35225 35-146); assay: cell-based or functional assay
[2] = target: T2, human TSLP (human, UniProt Q969D9 29-159); assay: cell-based or functional assay
[3] = target: T1, recombinant human IL-13; assay: cell-based or functional assay; remark: listed apart in the source
[4] = target: T3, hTSLP-His (human, UniProt Q969D9 29-159, limits assumed); assay: cell-based or functional assay
[5] = target: T4, recombinant cynomolgus monkey IL-13 (cynomolgus monkey, UniProt Q0PW92 21-132); assay: SPR
T4 construct: bought; also called rc-IL-13; cIL-13

[6] = target: T3, hTSLP-His; assay: competition ELISA, 7 nM TSLP-His pre-incubated with antibody; competitor Tezepelumab coated
[7] = target: T5, cynomolgus monkey (cyno) TSLP (cynomolgus monkey, UniProt A0A7N9CAT7 29-159); assay: SPR
T5 construct: also called cTSLP; cynomolgus TSLP

[8] = target: T1, recombinant human IL-13; assay: SPR
[9] = target: T2, human TSLP; assay: SPR
[10] = target: T1, recombinant human IL-13; assay: SPR; remark: listed apart in the source
[11] = target: T2, human TSLP; assay: SPR; remark: listed apart in the source

T4 sequence (Q0PW92 entry or part of it): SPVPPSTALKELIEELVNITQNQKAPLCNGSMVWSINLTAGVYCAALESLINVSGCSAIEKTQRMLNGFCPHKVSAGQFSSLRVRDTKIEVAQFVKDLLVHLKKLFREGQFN
T5 sequence (A0A7N9CAT7 entry or part of it): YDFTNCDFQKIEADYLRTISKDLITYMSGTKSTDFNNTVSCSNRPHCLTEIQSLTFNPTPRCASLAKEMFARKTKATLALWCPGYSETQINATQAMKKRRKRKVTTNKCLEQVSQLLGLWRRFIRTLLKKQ
T1 sequence (P35225 35-146 limits assumed): as the sequence (Q0PW92 entry or part of it) above, with S1G, K10R, V42M, N67S, R83H, V100L counted along it

| Binder | IC50 CD23 [1] [pM] | IC50 TARC [2] [pM] | HEK-IL-13 [nM] (IC50, STAT6 reporter) [3] | IC50 [pM], STAT5 phosphorylation inhibition in MUTZ5 cells [4] [pM] | Kd [5] [pM] | koff [5] [s⁻¹] | kon [5] [M⁻¹ s⁻¹] | IC50 [6] [pM] | Kd [7] [pM] | koff [7] [s⁻¹] | kon [7] [M⁻¹ s⁻¹] | Kd [8] [pM] | koff [8] [s⁻¹] | kon [8] [M⁻¹ s⁻¹] | Kd [9] [pM] | koff [9] [s⁻¹] | kon [9] [M⁻¹ s⁻¹] | Kd [10] [pM] | koff [10] [s⁻¹] | kon [10] [M⁻¹ s⁻¹] | other results |
| --- | --- | --- | --- | --- | --- | --- | --- | --- | --- | --- | --- | --- | --- | --- | --- | --- | --- | --- | --- | --- | --- |
| BDG38.090 (antibody, V domains shown, IgG1) VH: QMQLVESGGGVVQPGRSLTLSCAASGFEFRTYGMHWVRQAPGKGLEWLGVIWDDGSNTHYADSVKGRFTITRDNSKNTLNLQMNSLRVEDTAVYYCARAPQWYLTAEAFDLWGQGTMVTVSS VL: SYILTQPPSVSVAPGETARITCGGNLIGARLVHWYQQKPGQAPVLVVYDDSDRPSRIPERFSGSNIGNTATLTIEDVEEGDEADYYCQVWDYYSDHMVFGGGTKLTVL | 6.56 | 7.55 | 0.103 | 43.4 | 75.2 | 0.00187 | 2.49e+07 | 7310 | 9.01 | 5.53e-05 | 6.14e+06 | 19.8 | 0.00013 | 6.57e+06 | 11.8 | 0.000113 | 9.57e+06 |  |  |  |  |
| BDG38.135 (antibody, V domains shown) VH: QMQLVESGGGVVQPGQSLRLSCAASGFAFRTYGMHWVRQAPGKGLEWLAVIWYDGSNTHYADSVKGRFTITRDNSKNTLNLQMNSLRAEDTAVYYCVRAPQWYNSAEAFDLWGQGTMVTVSS VL: SYVLTQPPSVSVAPGQTARITCGGNLIGARLVHWYQQKPGQAPVLVVYDDSDRPSHIPERFSGSNSGNTATLTISRVEAGDEADYYCQVWDHSADTMVFGGGTKLTVL | 408 | 804 | 0.406 |  |  |  |  |  |  |  |  |  |  |  |  |  |  |  |  |  |  |
| BDG38.116 (antibody, V domains shown, IgG1) VH: QMQLVESGGGVVQPGRSLTLSCAASGFEFRTYGMHWVRQAPGKGLEWVAVIWDDGSNTHYADSVKGRFTITRDNSKNTLNLQMNSLRVEDTAVYYCVRAPQWYLTAEAFDLWGQGTMVTVSS VL: SYVLTQPPSVSVAPGQTATITCGGNLIGARLVHWYQQKPGQAPVLVIYDDSDRPSRIPERFSGSNIGNTATLTIERVEAGDEADYYCQVWDYYSDTMVFGGGTKLTVL | 83.7 | 59400 | 0.18 |  | 27 | 0.000847 | 3.14e+07 | 5120 | 27.1 | 0.000386 | 1.43e+07 | 21 | 0.000116 | 5.51e+06 | 7.27 | 3.95e-05 | 5.44e+06 |  |  |  |  |
| BDG38.112 (antibody, V domains shown, IgG1) VH: QMQLVESGGGVVQPGRSLRLSCAASGFEFRTYGMHWVRQAPGKGLEWLGVIWYDGSNTHYADSVKGRFTITRDNSKNTLNLQMNSLRAEDTAVYYCVRAPQWYLTAEAFDLWGQGTMVTVSS VL: SYILTQPPSVSVAPGQTATITCGGNLIGARLVHWYQQKPGQAPVLVIYDDSDRPSRIPERFSGSNIGNTATLTIERVEEGDEADYYCQVWDYSSDTYVFGGGTKLTVL | 59.4 | 104 | 0.0367 | 11400 |  |  |  | 29100 |  |  |  | 17.3 | 4.02e-05 | 2.32e+06 | 258 | 0.000274 | 1.06e+06 |  |  |  |  |
| BDG38.128 (antibody, V domains shown, IgG1) VH: QMQLVESGGGVVQPGRSLTLSCAASGFEFRTYGMHWVRQAPGKGLEWVAVIWDDGSNTHYADSVKGRFTITRDNSKNTLNLQMNSLRVEDTAVYYCVRAPQWYLTAEAFDLWGQGTMVTVSS VL: SYILTQPPSVSVAPGETATITCGGNLIGAKLVHWYQQKPGQAPVLVIYDDSDRPSRIPERFSGSNSGNTATLTISDVEEGDEADYYCQVWDYYADTMVFGGGTKLTVL | 14.9 |  | 0.0523 | 0.0048 | 102 | 0.00309 | 3.02e+07 | 5380 | 0.0492 | 7.62e-08 | 1.55e+06 |  |  |  |  |  |  | 32.1 | 0.000176 | 5.49e+06 | Kd [11]: 9.07 pM; koff [11]: 3.86e-05 s⁻¹; kon [11]: 4.25e+06 M⁻¹ s⁻¹ |
| BDG38.096 (antibody, V domains shown, IgG1) VH: QMQLVESGGGVVQPGRSLRLSCAASGFEFRTYGMHWVRQAPGKGLEWVAVIWDDGSNTHYADSVKGRFTITRDNSKNTLNLQMNSLRVEDTAVYYCVRAPQWYLTAEAFDLWGQGTMVTVSS VL: SYILTQPPSVSVAPGETARITCGGNLIGARLVHWYQQKPGQAPVLVIYDDSDRPSRIPERFSGSNIGNTATLTISRVEEGDEADYYCQVWDYSSDSMVFGGGTKLTVL | 250 | 23400 | 0.15 |  | 44.2 | 0.00242 | 5.47e+07 | 5870 | 18.1 | 6.14e-05 | 3.39e+06 | 25.1 | 0.000155 | 6.19e+06 | 21 | 0.000133 | 6.33e+06 |  |  |  |  |
| BDG38.139 (antibody, V domains shown, IgG1) VH: QMQLVESGGGVVQPGRSLRLSCAASGFAFRTYGMHWVRQAPGKGLEWVAVIWDDGSNTHYADSVKGRFTITRDNSKNTLNLQMNSLRAEDTAVYYCVRAPQWYLSAEAFDLWGQGTMVTVSS VL: SYVLTQPPSVSVAPGETATITCGGNMIGAYLVHWYQQKPGQAPLLVIYDDVDRPARIPERFSGSNSGNTATLTISRVEAGDEADYYCQVWDHNSDHMVFGGGTKLTVL | 12 |  | 0.0464 | 89 | 339 | 0.0077 | 2.27e+07 | 9570 | 2.39 | 1.55e-05 | 6.5e+06 |  |  |  |  |  |  | 27.5 | 0.000212 | 7.71e+06 | Kd [11]: 3.27 pM; koff [11]: 2.54e-05 s⁻¹; kon [11]: 7.78e+06 M⁻¹ s⁻¹ |
| BDG38.140 (antibody, V domains shown, IgG1) VH: QMQLVESGGGVVQPGRSLTLSCAASGFEFRTYGMHWVRQAPGKGLEWVGVIWDDGSNTHYADSVKGRFTITRDNSKNTLNLQMNSLRVEDTAVYYCARAPQWYLTAEAFDLWGQGTMVTVSS VL: SYILTQPPSVSVAPGETATITCGGNLIGAKLVHWYQQKPGQAPVLVIYDDSDRPSRIPERFSGSNIGNTATLTIEDVEAGDEADYYCQVWDYSANHMVFGGGTKLTVL | 146 |  | 0.043 | 2.21 | 23.8 | 0.00131 | 5.54e+07 | 5630 | 0.614 | 2.78e-06 | 4.53e+06 |  |  |  |  |  |  | 34.4 | 0.000168 | 4.88e+06 | Kd [11]: 8.27 pM; koff [11]: 2.79e-05 s⁻¹; kon [11]: 3.38e+06 M⁻¹ s⁻¹ |
| BDG38.129 (antibody, V domains shown, IgG1) VH: QMQLVESGGGVVQPGRSLTLSCAASGFEFRTYGMHWVRQAPGKGLEWVGVIWDDGSNTHYADSVKGRFTITRDNSKNTLNLQMNSLRVEDTAVYYCARAPQWYLTAEAFDLWGQGTMVTVSS VL: SYILTQPPSVSVAPGQTATITCGGNLIGAKLVHWYQQKPGQAPVLVIYDDSDRPSRIPERFSGSNIGNTATLTISDVEEGDEADYYCQVWDYSSDHMVFGGGTKLTVL | 29 |  | 0.0725 | 0.676 | 23.1 | 0.0014 | 6.05e+07 | 5490 | 14.1 | 5.27e-05 | 3.75e+06 |  |  |  |  |  |  | 16.7 | 0.000116 | 6.96e+06 | Kd [11]: 22.6 pM; koff [11]: 9.12e-05 s⁻¹; kon [11]: 4.03e+06 M⁻¹ s⁻¹ |
